Reference: the Human Domainome abundance scans (Beltran et al. 2025)
± gives the uncertainty stated by the source.

B1: E3 ubiquitin-protein ligase TRIM36, residues 208 to 252; numbered along this chain, Q9NQ86 (parent)
chain: KILMCPEHETERINMYCELCRRPVCHLCKLGGNHANHRVTTMSSA

Variants of: B1
Assay: abundance fitness (aPCA) (normalised: wild type 0, dead -1); higher = more abundant; growth selection in yeast, the domain comes from the species named
Details: Homo sapiens

Compared with KILMCPEHETERINMYCELCRRPVCHLCKWGGNHANHRVTTMSSA [L30W], KILMCPEHETERINMYCELCRRPVCHLCKSGGNHANHRVTTMSSA [L30S] is higher in abundance fitness: -0.203 ± 0.058 for the first, 0.075 ± 0.05 for the second.

First: KILMCPEHETERINMYCELCRRPVCHLCKVGGNHANHRVTTMSSA [L30V]
Second: KILMCPEHETERINMYCELCRRPVCHLCKFGGNHANHRVTTMSSA [L30F]
The abundance fitness of the first is higher: 0.026 ± 0.048 for the first, -0.206 ± 0.14 for the second.

KILMCPEHETERINMYCELCRRPVCHLCKMGGNHANHRVTTMSSA [L30M] and KILMCPEHETERINMYCELCRRPVCHLCKHGGNHANHRVTTMSSA [L30H] are within error of each other in abundance fitness: -0.041 ± 0.082 for the first, -0.078 ± 0.097 for the second.

Compared with KILMCPEHETERINMYCELCRRPVCHLCKYGGNHANHRVTTMSSA [L30Y], KILMCPEHETERINMYCELCRRPVCHLCKTGGNHANHRVTTMSSA [L30T] is higher in abundance fitness: -0.549 ± 0.14 for the first, 0.096 ± 0.058 for the second.

KILMCPEHETERINMYCELCRRPVCHLCKQGGNHANHRVTTMSSA [L30Q] and KILMCPEHETERINMYCELCRRPVCHLCKRGGNHANHRVTTMSSA [L30R] are within error of each other in abundance fitness: 0.067 ± 0.056 for the first, 0.045 ± 0.049 for the second.

KILMCPEHETERINMYCELCRRPVCHLCKGGGNHANHRVTTMSSA [L30G] and KILMCPEHETERINMYCELCRRPVCHLCKKGGNHANHRVTTMSSA [L30K] are within error of each other in abundance fitness: 0.073 ± 0.051 for the first, 0.101 ± 0.065 for the second.

KILMCPEHETERINMYCELCRRPVCHLCKEGGNHANHRVTTMSSA [L30E] and KILMCPEHETERINMYCELCRRPVCHLCKIGGNHANHRVTTMSSA [L30I] are within error of each other in abundance fitness: 0.09 ± 0.056 for the first, -0.05 ± 0.11 for the second.

KILMCPEHETERINMYCELCRRPVCHLCKNGGNHANHRVTTMSSA [L30N] and KILMCPEHETERINMYCELCRRPVCHLCKPGGNHANHRVTTMSSA [L30P] are within error of each other in abundance fitness: 0.042 ± 0.089 for the first, 0.005 ± 0.056 for the second.

KILMCPEHETERINMYCELCRRPVCHLCKLGGNHAGHRVTTMSSA [N36G] and KILMCPEHETERINMYCELCRRPVCHLCKLGGNHASHRVTTMSSA [N36S] are within error of each other in abundance fitness: -0.059 ± 0.053 for the first, -0.052 ± 0.051 for the second.

KILMCPEHETERINMYCELCRRPVCHLCKLGGNHAQHRVTTMSSA [N36Q] and KILMCPEHETERINMYCELCRRPVCHLCKLGGNHAKHRVTTMSSA [N36K] are within error of each other in abundance fitness: 0.021 ± 0.063 for the first, -0.023 ± 0.08 for the second.

KILMCPEHETERINMYCELCRRPVCHLCKLGGNHAFHRVTTMSSA [N36F] and KILMCPEHETERINMYCELCRRPVCHLCKLGGNHATHRVTTMSSA [N36T] are within error of each other in abundance fitness: -0.017 ± 0.15 for the first, -0.024 ± 0.054 for the second.

First: KILMCPEHETERINMYCELCRRPVCHLCKLGGNHALHRVTTMSSA [N36L]
Second: KILMCPEHETERINMYCELCRRPVCHLCKLGGNHAEHRVTTMSSA [N36E]
The abundance fitness of the first is lower: -0.097 ± 0.049 for the first, 0.039 ± 0.064 for the second.

First: KILMCPEHETERINMYCELCRRPVCHLCKLGGNHAHHRVTTMSSA [N36H]
Second: KILMCPEHETERINMYCELCRRPVCHLCKLGGNHAIHRVTTMSSA [N36I]
The abundance fitness of the first is higher: -0.05 ± 0.058 for the first, -0.225 ± 0.066 for the second.

KILMCPEHETERINMYCELCRRPVCHLCKLGGNHACHRVTTMSSA [N36C] and KILMCPEHETERINMYCELCRRPVCHLCKLGGNHAMHRVTTMSSA [N36M] are within error of each other in abundance fitness: -0.017 ± 0.067 for the first, -0.109 ± 0.068 for the second.

KILMCPEHETERINMYCELCRRPVCHLCKLGGNHAAHRVTTMSSA [N36A] and KILMCPEHETERINMYCELCRRPVCHLCKLGGNHADHRVTTMSSA [N36D] are within error of each other in abundance fitness: 0.029 ± 0.049 for the first, -0.005 ± 0.077 for the second.

KILMCPEHETERINMYCELCRRPVCHLCKLSGNHANHRVTTMSSA [G31S] and KILMCPEHETERINMYCELCRRPVCHLCKLTGNHANHRVTTMSSA [G31T] are within error of each other in abundance fitness: -0.007 ± 0.053 for the first, 0 ± 0.055 for the second.

Compared with KILMCPEHETERINMYCELCRRPVCHLCKLWGNHANHRVTTMSSA [G31W], KILMCPEHETERINMYCELCRRPVCHLCKLIGNHANHRVTTMSSA [G31I] is higher in abundance fitness: -0.438 ± 0.057 for the first, -0.203 ± 0.081 for the second.

KILMCPEHETERINMYCELCRRPVCHLCKLQGNHANHRVTTMSSA [G31Q] and KILMCPEHETERINMYCELCRRPVCHLCKLRGNHANHRVTTMSSA [G31R] are within error of each other in abundance fitness: -0.019 ± 0.056 for the first, -0.048 ± 0.048 for the second.

Going from KILMCPEHETERINMYCELCRRPVCHLCKLPGNHANHRVTTMSSA [G31P] to KILMCPEHETERINMYCELCRRPVCHLCKLCGNHANHRVTTMSSA [G31C], the abundance fitness rises from -0.285 ± 0.051 to -0.094 ± 0.069.

KILMCPEHETERINMYCELCRRPVCHLCKLHGNHANHRVTTMSSA [G31H] and KILMCPEHETERINMYCELCRRPVCHLCKLEGNHANHRVTTMSSA [G31E] are within error of each other in abundance fitness: -0.08 ± 0.056 for the first, -0.111 ± 0.063 for the second.

KILMCPEHETERINMYCELCRRPVCHLCKLAGNHANHRVTTMSSA [G31A] and KILMCPEHETERINMYCELCRRPVCHLCKLDGNHANHRVTTMSSA [G31D] are within error of each other in abundance fitness: -0.034 ± 0.046 for the first, -0.109 ± 0.079 for the second.

KILMCPEHETERINMYCELCRRPVCHLCKLLGNHANHRVTTMSSA [G31L] and KILMCPEHETERINMYCELCRRPVCHLCKLFGNHANHRVTTMSSA [G31F] are within error of each other in abundance fitness: -0.259 ± 0.049 for the first, -0.218 ± 0.094 for the second.

KILMCPEHETERINMYCELCRRPVCHLCKLKGNHANHRVTTMSSA [G31K] and KILMCPEHETERINMYCELCRRPVCHLCKLYGNHANHRVTTMSSA [G31Y] are within error of each other in abundance fitness: -0.091 ± 0.083 for the first, -0.176 ± 0.058 for the second.

Compared with KILMCPEHETERINMYCELCRRPVCHLCKLNGNHANHRVTTMSSA [G31N], KILMCPEHETERINMYCELCRRPVCHLCKLGGNGANHRVTTMSSA [H34G] is lower in abundance fitness: -0.058 ± 0.078 for the first, -0.288 ± 0.049 for the second.

KILMCPEHETERINMYCELCRRPVCHLCKLGGNTANHRVTTMSSA [H34T] and KILMCPEHETERINMYCELCRRPVCHLCKLGGNSANHRVTTMSSA [H34S] are within error of each other in abundance fitness: -0.338 ± 0.063 for the first, -0.318 ± 0.054 for the second.

Compared with KILMCPEHETERINMYCELCRRPVCHLCKLGGNVANHRVTTMSSA [H34V], KILMCPEHETERINMYCELCRRPVCHLCKLGGNAANHRVTTMSSA [H34A] is higher in abundance fitness: -0.444 ± 0.056 for the first, -0.334 ± 0.05 for the second.

Going from KILMCPEHETERINMYCELCRRPVCHLCKLGGNIANHRVTTMSSA [H34I] to KILMCPEHETERINMYCELCRRPVCHLCKLGGNKANHRVTTMSSA [H34K], the abundance fitness rises from -0.738 ± 0.15 to -0.485 ± 0.059.

Going from KILMCPEHETERINMYCELCRRPVCHLCKLGGNYANHRVTTMSSA [H34Y] to KILMCPEHETERINMYCELCRRPVCHLCKLGGNCANHRVTTMSSA [H34C], the abundance fitness rises from -0.562 ± 0.072 to 0.033 ± 0.06.

KILMCPEHETERINMYCELCRRPVCHLCKLGGNNANHRVTTMSSA [H34N] gave an abundance fitness of -0.46 ± 0.084.
